We go through one molecule from patent US20150065434A1 (MUSC FOUNDATION FOR RESEARCH DEVELOPMENT, published 2015).

For test [1], the target named is T1, human monoamine oxidase A (human, UniProt P21397 1-527, limits assumed).
T1 sequence (looked up): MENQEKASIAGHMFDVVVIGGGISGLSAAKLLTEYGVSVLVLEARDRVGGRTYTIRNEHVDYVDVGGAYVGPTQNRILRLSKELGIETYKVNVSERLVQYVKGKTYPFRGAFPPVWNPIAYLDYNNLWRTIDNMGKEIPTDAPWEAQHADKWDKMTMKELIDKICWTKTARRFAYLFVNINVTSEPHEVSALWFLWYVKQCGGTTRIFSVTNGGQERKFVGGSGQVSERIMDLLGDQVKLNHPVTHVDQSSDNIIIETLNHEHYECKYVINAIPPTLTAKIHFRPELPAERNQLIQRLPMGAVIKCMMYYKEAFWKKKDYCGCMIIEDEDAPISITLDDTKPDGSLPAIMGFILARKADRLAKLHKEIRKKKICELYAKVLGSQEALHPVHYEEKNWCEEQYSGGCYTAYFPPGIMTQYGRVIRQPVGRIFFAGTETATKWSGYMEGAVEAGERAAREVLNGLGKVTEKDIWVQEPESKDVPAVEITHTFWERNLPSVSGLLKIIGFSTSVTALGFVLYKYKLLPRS
The test can be described thus: cell-based or functional assay.

For test [2], the target named is T2, human monoamine oxidase B (human, UniProt P27338 1-520, limits assumed).
T2 sequence (looked up): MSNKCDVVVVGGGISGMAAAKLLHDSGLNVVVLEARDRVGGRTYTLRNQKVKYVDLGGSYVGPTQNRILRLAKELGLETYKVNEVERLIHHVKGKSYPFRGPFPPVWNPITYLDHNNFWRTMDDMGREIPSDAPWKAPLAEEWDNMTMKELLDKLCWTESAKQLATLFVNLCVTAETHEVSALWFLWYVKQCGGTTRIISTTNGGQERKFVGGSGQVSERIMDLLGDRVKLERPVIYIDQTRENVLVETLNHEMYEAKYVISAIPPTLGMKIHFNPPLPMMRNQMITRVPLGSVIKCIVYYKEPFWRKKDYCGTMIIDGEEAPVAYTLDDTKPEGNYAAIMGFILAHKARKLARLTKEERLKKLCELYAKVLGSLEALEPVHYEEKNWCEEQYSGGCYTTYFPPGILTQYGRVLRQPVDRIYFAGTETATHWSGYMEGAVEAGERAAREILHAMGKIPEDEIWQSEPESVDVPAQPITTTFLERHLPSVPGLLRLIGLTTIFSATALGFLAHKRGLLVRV
The test can be described thus: cell-based or functional assay.

Bridge positions count the residues as written; N and C are the ends. Ends that are not written are not given here.

B1: [Met]^4 H3 (1-21)-NH2 cyclic peptide 11, lactam bridge between Lys5 and Glu10 (peptide)
peptide: ARTMKTARKETGGKAPRKQLA-NH2
modifications: lactam 5-10
Consider B1, for which the “IC50 (inhibition of MAO-A)” value in test [1] is above 100 µM. In addition, the “IC50 (inhibition of MAO-B)” value in test [2] is above 100 µM.
